Test [1] deals with gum arabic or potato lectin. Kind of test: Lambda cyhalothrin amount in wells with bound microcapsules, GC/MS-MS. The settings on record: VHH coupled to lambda cyhalothrin microcapsules. Format: binding. The method, then: An ELISA-like assay setup was used to evaluate the interaction of VHH-coupled microcapsules to antigen-containing surfaces. ELISA plates (Maxisorp (Thermo Scientific Nunc) or high bind half area microplates (Greiner Bio-One)) were coated with gum arabic or potato lectin. Coatings were performed overnight with 100 μg/ml gum arabic or potato lectin in PBS. Control wells included blank wells or wells coated with unrelated antigens. Plates were washed three times with PBS with 0.05%-TWEEN®-20 and blocked with 5% skimmed milk in PBS for 1 to 2 hours. VHH-coupled lambda cyhalothrin-containing or Uvitex-containing microcapsules were diluted to appropriate densities in 1% skimmed milk in PBS with 0.05%-TWEEN®-20. Microcapsules were added to the antigen-coated or control wells and allowed to bind for 1 hour. Unbound microcapsules were removed by washing five times with PBS with 0.05%-TWEEN®-20. The bottoms of ELISA plate wells were analyzed for bound microcapsules on a macrozoom microscope system (Nikon). Microcapsules were counted using Volocity image analysis software (Perkin Elmer). A DAPI filter was used to visualize Uvitex microcapsules. […]
In another experiment, lambda cyhalothrin amounts were also determined analytically. […] The amount of lambda cyhalothrin was determined by GC/MS-MS analysis in comparison with calibration solutions. […]

Test [2] is described as follows: ELISA-like assay, microcapsules with monovalent or bivalent VHH, unrelated antigen. The class given is binding. Also on record: unit not given beside the values. The note with it: Uvitex microcapsules. An excerpt:
Bivalent VHH constructs were produced in bacteria by cloning two VHH sequences in tandem into the pASF22 vector, creating a fusion of two VHH with a 9 glycine-serine linker (GGGGSGGGS (SEQ ID NO:50)) in between the two VHH. pASF22 is an in-house produced pMES derivative. The tags that were used were C-terminal c-Myc (EQKLISEEDLN (SEQ ID NO:51)) and hexahistidine (HHHHHH (SEQ ID NO:52)). A triple alanine linker (AAA) was placed in between the C-terminal end of the VHH and the c-Myc tag and a glycine-alanine-alanine (GAA) linker was used in between the C-terminal end of the c-Myc tag and the hexahistidine tag. The complete sequence C-terminal of the bivalent VHH that was used: AAA-EQKLISEEDLN-GAA-HHHHHH (SEQ ID NO:53). Fresh overnight cultures were produced by starting from colony streaks and inoculation of 2×TY media supplemented with 2% glucose and 100 μg/ml ampicillin. The overnight cultures were used to inoculate fresh cultures 1:100 in 2×TY media with 0.1% glucose and 100 μg/ml ampicillin. After growing at 37° C. in a shaking incubator for 3 hours, IPTG was added to a 1 mM final concentration and recombinant bivalent VHH were produced during an additional incubation for 4 hours. Cells were spun down and resuspended in 1/50th of the original culture volume of PBS and incubated with head-over-head rotation at 4° C. for 30 minutes. Spheroplasts were spun down by centrifugation at 3,000 g and 4° C. for 20 minutes. Supernatants were transferred to fresh tubes and centrifuged again at 3,000 g and 4° C. for 20 minutes. The supernatant was collected and sodium chloride concentration was adjusted to 500 mM and imidazole concentration to 20 mM. Hexahistidine-tagged bivalent VHH were purified from the extracts using HisTrap FF Crude 5 ml IMAC columns (GE Lifesciences) and HiLoad 16/60 Superdex 75 prep grade gel filtration column (GE Lifesciences) on an AKTAxpress system (GE Lifesciences) following standard procedures.
Next, it was investigated if binding of microcapsules to surfaces could be improved by using targeting agents comprising multivalent VHH. A series of parallel couplings was performed with equal amounts of monovalent VHH, bivalent VHH, and unrelated VHH. Success of coupling of VHH and multivalent VHH were analyzed as described in Example 4. An ELISA-like assay was performed using high bind half area microplates (Greiner Bio-One) coated with 5 μg/well potato lectin. Control wells included blank wells or wells coated with unrelated antigens. Plates were washed three times with PBS with 0.05%-TWEEN®-20 and blocked with 5% skimmed milk in PBS for 1 to 2 hours. VHH-coupled Uvitex-containing microcapsules were diluted to appropriate densities in 1% skimmed milk in PBS with 0.05%-TWEEN®-20. Five-fold serial dilution series were prepared and allowed to bind to the surface to compare binding of microcapsules coupled with monovalent or bivalent VHH. Microcapsules were added to the antigen-coated or control wells and allowed to bind for 1 hour. Unbound microcapsules were removed by washing five times with PBS with 0.05%-TWEEN®-20. The bottoms of ELISA plate wells were analyzed for bound microcapsules on a macrozoom microscope system (Nikon). Microcapsules were counted using Volocity image analysis software (Perkin Elmer). A DAPI filter was used to visualize Uvitex microcapsules. […] The surface area of microcapsules with coupled bivalent VHH was 15-fold above the surface area of blank microcapsules applied at this microcapsule density while the surface area of microcapsules with monovalent VHH was only six-fold above the surface area of blank microcapsules applied at this microcapsule density. This difference could be explained by an increase in binding strength due to additional avidity of the bivalent VHH compared to monovalent VHH, it could also be that the use of bivalent VHH increases flexibility and spacer length of the coupled targeting agents on microcapsules, or a combination of both.

B1: VHH 3E6: VHH binding gum arabic, potato lectin and leaf surface; SEQ ID NO:7 by order of the list (protein, listed as Lama glama)
VHH: QVQLQESGGGLVQPGGTLSLSCAASGFNVRWYGMGWFRQAPGKEREGVACISALQETTAYADSVKGRFTLSRDNPKNTLSLQMNNLQPEDTGVYYCATTDCDDSSRMTYTSYLGQGTQVTVSS
modifications: 3E6
For B1, in test [1], the “increase of amounts of lambda cyhalothrin in wells coated with antigen compared to blank microcapsules” value was 23 fold and the “increase of amounts of lambda cyhalothrin over blank wells not coated with antigen” value worked out at 27 fold.

B2: Microcapsules containing uvitex OB VHH 3E6: polyurea microcapsules containing the fluorescent tracer Uvitex OB, coupled with (monovalent) VHH 3E6 (conjugate)
VHH: B1 VHH
modifications: left off: small tags and cut ends
notes: polyurea microcapsules containing the fluorescent tracer Uvitex OB, coupled with (monovalent) VHH 3E6
Regarding B2, the “Surface area of bound microcapsules” value in test [2] (no coating (second series, with unrelated antigen rows), surface coverage 100%) was determined as 72.036; in test [2] (unrelated antigen, surface coverage 4%), 5.011; in test [2] (unrelated antigen, surface coverage 20%), 27.742; in test [2] (unrelated antigen, surface coverage 100%), 69.503.

For the origin of these results see US8598081B2, “Specific delivery of agrochemicals” (priority 2010, dated 2013).
